Source: paper PMC4351158 (Structure (London, England : 1993), 2015)

Test system: periplasmic domain of RseA
Assay: Cleavage of 35S-labeled RseA periplasmic domain by DegS variants
Assay type: biochemical, E. coli
Conditions: H198P background; with YYF; % of H198P parent

Row | Molecule | YYF-stimulated cleavage activity relative to H198P parental enzyme
1 | R178A/H198P (protein, UniProt P0AEE3 1-355, looked up, variant R178A H198P) Serine endoprotease DegS: MFVKLLRSVAIGLIVGAILLVAMPSLRSLNPLSTPQFDSTDETPASYNLAVRRAAPAVVNVYNRGLNTNSHNQLEIRTLGSGVIMDQRGYIITNKHVINDADQIIVALQDGRVFEALLVGSDSLTDLAVLKINATGGLPTIPINARRVPHIGDVVLAIGNPYNLGQTITQGIISATGAIGLNPTGRQNFLQTDASINPGNSGGALVNSLGELMGINTLSFDKSNDGETPEGIGFAIPFQLATKIMDKLIRDGRVIRGYIGIGGREIAPLHAQGGGIDQLQGIVVNEVSPDGPAANAGIQVNDLIISVDNKPAISALETMDQVAEIRPGSVIPVVVMRDDKQLTLQVTIQEYPATN | 9–24%
2 | F220A/H198P (protein, UniProt P0AEE3 1-355, looked up, variant F220A H198P) Serine endoprotease DegS: MFVKLLRSVAIGLIVGAILLVAMPSLRSLNPLSTPQFDSTDETPASYNLAVRRAAPAVVNVYNRGLNTNSHNQLEIRTLGSGVIMDQRGYIITNKHVINDADQIIVALQDGRVFEALLVGSDSLTDLAVLKINATGGLPTIPINARRVPHIGDVVLAIGNPYNLGQTITQGIISATGRIGLNPTGRQNFLQTDASINPGNSGGALVNSLGELMGINTLSADKSNDGETPEGIGFAIPFQLATKIMDKLIRDGRVIRGYIGIGGREIAPLHAQGGGIDQLQGIVVNEVSPDGPAANAGIQVNDLIISVDNKPAISALETMDQVAEIRPGSVIPVVVMRDDKQLTLQVTIQEYPATN | 9–24%

Same assay, conditions: WT background; compared to wild-type DegS

Row | Molecule | YYF-stimulated cleavage activity, in words
3 | R178A: DegS variant R178A (protein, left off: His6, N-terminal, state not stated) RSLNPLSTPQFDSTDETPASYNLAVRRAAPAVVNVYNRGLNTNSHNQLEIRTLGSGVIMDQRGYIITNKHVINDADQIIVALQDGRVFEALLVGSDSLTDLAVLKINATGGLPTIPINARRVPHIGDVVLAIGNPYNLGQTITQGIISATGAIGLNPTGRQNFLQTDASINHGNSGGALVNSLGELMGINTLSFDKSNDGETPEGIGFAIPFQLATKIMDKLIRDGRVIRGYIGIGGREIAPLHAQGGGIDQLQGIVVNEVSPDGPAANAGIQVNDLIISVDNKPAISALETMDQVAEIRPGSVIPVVVMRDDKQLTLQVTIQEYPATN | almost no cleavage activity
4 | F220A: DegS variant F220A (protein, left off: His6, N-terminal, state not stated) RSLNPLSTPQFDSTDETPASYNLAVRRAAPAVVNVYNRGLNTNSHNQLEIRTLGSGVIMDQRGYIITNKHVINDADQIIVALQDGRVFEALLVGSDSLTDLAVLKINATGGLPTIPINARRVPHIGDVVLAIGNPYNLGQTITQGIISATGRIGLNPTGRQNFLQTDASINHGNSGGALVNSLGELMGINTLSADKSNDGETPEGIGFAIPFQLATKIMDKLIRDGRVIRGYIGIGGREIAPLHAQGGGIDQLQGIVVNEVSPDGPAANAGIQVNDLIISVDNKPAISALETMDQVAEIRPGSVIPVVVMRDDKQLTLQVTIQEYPATN | almost no cleavage activity

Same assay, conditions: WT background; with YYF; % of wild-type activity

Row | Molecule | YYF-stimulated cleavage activity relative to wild type
5 | P161A: DegS variant P161A (protein, left off: His6, N-terminal, state not stated) RSLNPLSTPQFDSTDETPASYNLAVRRAAPAVVNVYNRGLNTNSHNQLEIRTLGSGVIMDQRGYIITNKHVINDADQIIVALQDGRVFEALLVGSDSLTDLAVLKINATGGLPTIPINARRVPHIGDVVLAIGNAYNLGQTITQGIISATGRIGLNPTGRQNFLQTDASINHGNSGGALVNSLGELMGINTLSFDKSNDGETPEGIGFAIPFQLATKIMDKLIRDGRVIRGYIGIGGREIAPLHAQGGGIDQLQGIVVNEVSPDGPAANAGIQVNDLIISVDNKPAISALETMDQVAEIRPGSVIPVVVMRDDKQLTLQVTIQEYPATN | less than 2%
6 | Y162A: DegS variant Y162A (protein, left off: His6, N-terminal, state not stated) RSLNPLSTPQFDSTDETPASYNLAVRRAAPAVVNVYNRGLNTNSHNQLEIRTLGSGVIMDQRGYIITNKHVINDADQIIVALQDGRVFEALLVGSDSLTDLAVLKINATGGLPTIPINARRVPHIGDVVLAIGNPANLGQTITQGIISATGRIGLNPTGRQNFLQTDASINHGNSGGALVNSLGELMGINTLSFDKSNDGETPEGIGFAIPFQLATKIMDKLIRDGRVIRGYIGIGGREIAPLHAQGGGIDQLQGIVVNEVSPDGPAANAGIQVNDLIISVDNKPAISALETMDQVAEIRPGSVIPVVVMRDDKQLTLQVTIQEYPATN | less than 2%
7 | L164A: DegS variant L164A (protein, left off: His6, N-terminal, state not stated) RSLNPLSTPQFDSTDETPASYNLAVRRAAPAVVNVYNRGLNTNSHNQLEIRTLGSGVIMDQRGYIITNKHVINDADQIIVALQDGRVFEALLVGSDSLTDLAVLKINATGGLPTIPINARRVPHIGDVVLAIGNPYNAGQTITQGIISATGRIGLNPTGRQNFLQTDASINHGNSGGALVNSLGELMGINTLSFDKSNDGETPEGIGFAIPFQLATKIMDKLIRDGRVIRGYIGIGGREIAPLHAQGGGIDQLQGIVVNEVSPDGPAANAGIQVNDLIISVDNKPAISALETMDQVAEIRPGSVIPVVVMRDDKQLTLQVTIQEYPATN | less than 2%
8 | T167V: DegS variant T167V (protein, left off: His6, N-terminal, state not stated) RSLNPLSTPQFDSTDETPASYNLAVRRAAPAVVNVYNRGLNTNSHNQLEIRTLGSGVIMDQRGYIITNKHVINDADQIIVALQDGRVFEALLVGSDSLTDLAVLKINATGGLPTIPINARRVPHIGDVVLAIGNPYNLGQVITQGIISATGRIGLNPTGRQNFLQTDASINHGNSGGALVNSLGELMGINTLSFDKSNDGETPEGIGFAIPFQLATKIMDKLIRDGRVIRGYIGIGGREIAPLHAQGGGIDQLQGIVVNEVSPDGPAANAGIQVNDLIISVDNKPAISALETMDQVAEIRPGSVIPVVVMRDDKQLTLQVTIQEYPATN | less than 2%
9 | T169A: DegS variant T169A (protein, left off: His6, N-terminal, state not stated) RSLNPLSTPQFDSTDETPASYNLAVRRAAPAVVNVYNRGLNTNSHNQLEIRTLGSGVIMDQRGYIITNKHVINDADQIIVALQDGRVFEALLVGSDSLTDLAVLKINATGGLPTIPINARRVPHIGDVVLAIGNPYNLGQTIAQGIISATGRIGLNPTGRQNFLQTDASINHGNSGGALVNSLGELMGINTLSFDKSNDGETPEGIGFAIPFQLATKIMDKLIRDGRVIRGYIGIGGREIAPLHAQGGGIDQLQGIVVNEVSPDGPAANAGIQVNDLIISVDNKPAISALETMDQVAEIRPGSVIPVVVMRDDKQLTLQVTIQEYPATN | less than 2%
10 | Q191A: DegS variant Q191A (protein, left off: His6, N-terminal, state not stated) RSLNPLSTPQFDSTDETPASYNLAVRRAAPAVVNVYNRGLNTNSHNQLEIRTLGSGVIMDQRGYIITNKHVINDADQIIVALQDGRVFEALLVGSDSLTDLAVLKINATGGLPTIPINARRVPHIGDVVLAIGNPYNLGQTITQGIISATGRIGLNPTGRQNFLATDASINHGNSGGALVNSLGELMGINTLSFDKSNDGETPEGIGFAIPFQLATKIMDKLIRDGRVIRGYIGIGGREIAPLHAQGGGIDQLQGIVVNEVSPDGPAANAGIQVNDLIISVDNKPAISALETMDQVAEIRPGSVIPVVVMRDDKQLTLQVTIQEYPATN | less than 2%
11 | N197A: DegS variant N197A (protein, left off: His6, N-terminal, state not stated) RSLNPLSTPQFDSTDETPASYNLAVRRAAPAVVNVYNRGLNTNSHNQLEIRTLGSGVIMDQRGYIITNKHVINDADQIIVALQDGRVFEALLVGSDSLTDLAVLKINATGGLPTIPINARRVPHIGDVVLAIGNPYNLGQTITQGIISATGRIGLNPTGRQNFLQTDASIAHGNSGGALVNSLGELMGINTLSFDKSNDGETPEGIGFAIPFQLATKIMDKLIRDGRVIRGYIGIGGREIAPLHAQGGGIDQLQGIVVNEVSPDGPAANAGIQVNDLIISVDNKPAISALETMDQVAEIRPGSVIPVVVMRDDKQLTLQVTIQEYPATN | less than 2%
12 | I232A: DegS variant I232A (protein, left off: His6, N-terminal, state not stated) RSLNPLSTPQFDSTDETPASYNLAVRRAAPAVVNVYNRGLNTNSHNQLEIRTLGSGVIMDQRGYIITNKHVINDADQIIVALQDGRVFEALLVGSDSLTDLAVLKINATGGLPTIPINARRVPHIGDVVLAIGNPYNLGQTITQGIISATGRIGLNPTGRQNFLQTDASINHGNSGGALVNSLGELMGINTLSFDKSNDGETPEGAGFAIPFQLATKIMDKLIRDGRVIRGYIGIGGREIAPLHAQGGGIDQLQGIVVNEVSPDGPAANAGIQVNDLIISVDNKPAISALETMDQVAEIRPGSVIPVVVMRDDKQLTLQVTIQEYPATN | less than 2%
13 | F234A: DegS variant F234A (protein, left off: His6, N-terminal, state not stated) RSLNPLSTPQFDSTDETPASYNLAVRRAAPAVVNVYNRGLNTNSHNQLEIRTLGSGVIMDQRGYIITNKHVINDADQIIVALQDGRVFEALLVGSDSLTDLAVLKINATGGLPTIPINARRVPHIGDVVLAIGNPYNLGQTITQGIISATGRIGLNPTGRQNFLQTDASINHGNSGGALVNSLGELMGINTLSFDKSNDGETPEGIGAAIPFQLATKIMDKLIRDGRVIRGYIGIGGREIAPLHAQGGGIDQLQGIVVNEVSPDGPAANAGIQVNDLIISVDNKPAISALETMDQVAEIRPGSVIPVVVMRDDKQLTLQVTIQEYPATN | less than 2%
